T1: human FcγRIIa type H (human, UniProt P12318 36-217)
T1 construct: also called FcγRIIaH; FcγRIIa(H)
T1 sequence: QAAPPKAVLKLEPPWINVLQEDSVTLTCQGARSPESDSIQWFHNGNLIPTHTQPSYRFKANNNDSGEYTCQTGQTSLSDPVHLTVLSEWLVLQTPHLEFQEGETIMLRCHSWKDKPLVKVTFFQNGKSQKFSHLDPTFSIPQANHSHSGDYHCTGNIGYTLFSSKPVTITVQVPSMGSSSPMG

T2: human FcγRIIa type R (human, UniProt P12318 36-217)
T2 construct: also called FcγRIIaR; FcγRIIa(R)
T2 chain: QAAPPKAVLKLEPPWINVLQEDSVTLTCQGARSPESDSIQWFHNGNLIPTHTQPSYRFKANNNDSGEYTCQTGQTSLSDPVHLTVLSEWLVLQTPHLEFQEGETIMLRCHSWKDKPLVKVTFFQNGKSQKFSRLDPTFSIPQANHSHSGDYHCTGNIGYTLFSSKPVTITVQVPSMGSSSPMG

T3: human FcγRIIb (human, UniProt P31994 43-217, limits assumed)
T3 construct: also called FcγIIB
T3 sequence: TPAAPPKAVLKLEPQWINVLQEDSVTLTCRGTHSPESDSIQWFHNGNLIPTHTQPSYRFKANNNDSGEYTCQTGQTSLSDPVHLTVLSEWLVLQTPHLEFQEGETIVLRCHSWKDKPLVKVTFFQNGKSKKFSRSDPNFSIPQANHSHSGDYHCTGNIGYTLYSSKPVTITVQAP

T4: FcγRIIb (human, UniProt P31994 43-217, limits assumed)
T4 construct: also called FcγIIB; CD32
T4 sequence: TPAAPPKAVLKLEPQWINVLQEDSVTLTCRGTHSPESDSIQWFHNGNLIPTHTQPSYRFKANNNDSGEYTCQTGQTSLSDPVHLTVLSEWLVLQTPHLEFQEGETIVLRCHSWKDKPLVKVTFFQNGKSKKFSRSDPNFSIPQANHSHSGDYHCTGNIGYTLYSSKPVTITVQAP

T5: FcγRIIa type H (human, UniProt P12318 36-217)
T5 construct: also called FcγRIIaH; FcγRIIa(H)
T5 sequence: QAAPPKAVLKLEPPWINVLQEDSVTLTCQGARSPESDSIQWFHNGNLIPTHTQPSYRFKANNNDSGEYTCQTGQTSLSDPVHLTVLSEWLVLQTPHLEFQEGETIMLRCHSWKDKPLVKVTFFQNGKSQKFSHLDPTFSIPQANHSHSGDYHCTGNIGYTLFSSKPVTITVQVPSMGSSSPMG

T6: FcγRIIa type R (human, UniProt P12318 36-217)
T6 construct: also called FcγRIIaR; FcγRIIa(R)
T6 chain: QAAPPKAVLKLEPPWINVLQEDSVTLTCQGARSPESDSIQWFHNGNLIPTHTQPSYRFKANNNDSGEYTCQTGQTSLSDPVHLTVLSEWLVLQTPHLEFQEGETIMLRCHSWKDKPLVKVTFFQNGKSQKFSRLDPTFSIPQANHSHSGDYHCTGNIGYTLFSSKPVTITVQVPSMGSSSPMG


Key:
[1] = target: T7, human FcγRIIIa type V (human, UniProt P08637 17-208, limits assumed); experiment: SPR (Biacore), binding amount relative to IL6R-BF648/IL6R-L = 100
T7 construct: also called FcγRIIIaV; FcγRIIIa(V)

[2] = target: T8, human FcγRIa (human, UniProt P12314 16-292, limits assumed); experiment: as above
T8 construct: also called CD64

[3] = target: T1, human FcγRIIa type H; experiment: as above
[4] = target: T2, human FcγRIIa type R; experiment: as above
[5] = target: T3, human FcγRIIb; experiment: as above
[6] = target: T4, FcγRIIb; experiment: ratio of SPR KD values, parent IL6R-B3/IL6R-L
[7] = target: T4, FcγRIIb; experiment: SPR (Biacore), method of Example 14
Text: (§1) Furthermore, KD(IIaR)/KD(IIb) and KD(IIaH)/KD(IIb) in the table respectively represent the value obtained by dividing the KD value of each variant for FcγRIIaR by the KD value of each variant for FcγRIIb, and the value obtained by dividing the KD value of each variant for FcγRIIaH by the KD value of each variant for FcγRIIb. KD(IIb) of the parent polypeptide/KD(IIb) of the altered polypeptide refers to the value obtained by dividing the KD value of the parent polypeptide for FcγRIIb by the KD value of each variant for FcγRIIb.

[8] = target: T5, FcγRIIa type H; experiment: SPR (Biacore), method of Example 14
Text: as §1

[9] = target: T9, FcγRIa (human, UniProt P12314 16-292, limits assumed); experiment: SPR (Biacore), method of Example 14
T9 construct: also called CD64
Text: as §1

[10] = target: T6, FcγRIIa type R; experiment: SPR (Biacore), method of Example 14
Text: as §1

[11] = target: T10, FcγRIIIa type V (human, UniProt P08637 17-208, limits assumed); experiment: SPR (Biacore), method of Example 14
T10 construct: also called FcγRIIIaV; FcγRIIIa(V)
T10 sequence (P08637 17-208 F176V limits assumed): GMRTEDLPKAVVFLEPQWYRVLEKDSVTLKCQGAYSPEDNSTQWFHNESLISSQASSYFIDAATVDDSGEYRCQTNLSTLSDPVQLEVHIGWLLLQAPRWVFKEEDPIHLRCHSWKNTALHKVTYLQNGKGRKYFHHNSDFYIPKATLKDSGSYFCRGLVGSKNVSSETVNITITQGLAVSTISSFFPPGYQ
Text: as §1

T8 sequence (P12314 16-292 limits assumed): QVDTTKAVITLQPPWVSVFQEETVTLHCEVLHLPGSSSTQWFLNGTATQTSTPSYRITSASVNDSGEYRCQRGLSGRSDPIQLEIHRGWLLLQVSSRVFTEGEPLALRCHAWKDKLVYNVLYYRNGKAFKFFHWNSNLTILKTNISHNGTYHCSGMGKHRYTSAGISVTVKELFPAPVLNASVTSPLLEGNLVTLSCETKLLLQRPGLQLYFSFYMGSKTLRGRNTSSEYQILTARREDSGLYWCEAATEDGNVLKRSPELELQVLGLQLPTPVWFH
T7 sequence (P08637 other isoform, or with tags, fused parts or gaps limits assumed): as the sequence (P08637 17-208 F176V limits assumed) above, with A179S counted along it
T9 sequence (P12314 16-292 limits assumed): as the sequence (P12314 16-292 limits assumed) above

Row | Binder | relative binding [1] | relative binding [2] | relative binding [3] | relative binding [4] | relative binding [5] | KD(IIb) of the parent polypeptide/KD(IIb) of altered polypeptide [6] [fold] | Kd [7] [µM] | Kd [8] [µM] | Kd [9] [µM] | Kd [10] [µM] | Kd [11] [µM]
1 | IL6R-2B002/IL6R-L (antibody, human IgG1, Alteration introduced into IL6R-B3; also called P238D/E233D) heavy: QVQLQESGPGLVKPSETLSLTCAVSGHSISHDHAWSWVRQPPGEGLEWIGFISYSGITNYNPSLQGRVTISRDNSKNTLYLQMNSLRAEDTAVYYCARSLARTTAMDYWGEGTLVTVSSASTKGPSVFPLAPSSKSTSGGTAALGCLVKDYFPEPVTVSWNSGALTSGVHTFPAVLQSSGLYSLSSVVTVPSSSLGTQTYICNVNHKPSNTKVDKKVEPKSCDKTHTCPPCPAPDLLGGDSVFLFPPKPKDTLMISRTPEVTCVVVDVSHEDPEVKFNWYVDGVEVHNAKTKPREEQYNSTYRVVSVLTVLHQDWLNGKEYKCKVSNKALPAPIEKTISKAKGQPREPQVYTLPPSRDELTKNQVSLTCLVKGFYPSDIAVEWESNGQPENNYKTTPPVLDSDGSFFLYSKLTVDKSRWQQGNVFSCSVMHEALHNHYTQESLSLSP light: DIQMTQSPSSLSASVGDRVTITCRASQDISSYLNWYQQKPGKAPKLLIYYTSRLHSGVPSRFSGSGSGTDFTFTISSLQPEDIATYYCQQGNTLPYTFGQGTKVEIK | 147 | 118 | 147 | 103 |  |  |  |  |  |  | 
2 | IL6R-BP136/IL6R-L (antibody, human IgG1, Alteration introduced into IL6R-B3; also called P238D/K326A) heavy: QVQLQESGPGLVKPSETLSLTCAVSGHSISHDHAWSWVRQPPGEGLEWIGFISYSGITNYNPSLQGRVTISRDNSKNTLYLQMNSLRAEDTAVYYCARSLARTTAMDYWGEGTLVTVSSASTKGPSVFPLAPSSKSTSGGTAALGCLVKDYFPEPVTVSWNSGALTSGVHTFPAVLQSSGLYSLSSVVTVPSSSLGTQTYICNVNHKPSNTKVDKKVEPKSCDKTHTCPPCPAPELLGGDSVFLFPPKPKDTLMISRTPEVTCVVVDVSHEDPEVKFNWYVDGVEVHNAKTKPREEQYNSTYRVVSVLTVLHQDWLNGKEYKCKVSNAALPAPIEKTISKAKGQPREPQVYTLPPSRDELTKNQVSLTCLVKGFYPSDIAVEWESNGQPENNYKTTPPVLDSDGSFFLYSKLTVDKSRWQQGNVFSCSVMHEALHNHYTQESLSLSP light: DIQMTQSPSSLSASVGDRVTITCRASQDISSYLNWYQQKPGKAPKLLIYYTSRLHSGVPSRFSGSGSGTDFTFTISSLQPEDIATYYCQQGNTLPYTFGQGTKVEIK |  | 117 | 103 | 159 | 119 |  |  |  |  |  | 
3 | IL6R-BP207/IL6R-L (antibody, human IgG1, Anti-IL-6R human IgG1 variant; copies: 2 + 2) heavy: QVQLQESGPGLVKPSETLSLTCAVSGHSISHDHAWSWVRQPPGEGLEWIGFISYSGITNYNPSLQGRVTISRDNSKNTLYLQMNSLRAEDTAVYYCARSLARTTAMDYWGEGTLVTVSSASTKGPSVFPLAPSSKSTSGGTAALGCLVKDYFPEPVTVSWNSGALTSGVHTFPAVLQSSGLYSLSSVVTVPSSSLGTQTYICNVNHKPSNTKVDKKVEPKSCDKTHTCPPCPAPDLLGGDSVFLFPPKPKDTLMISRTPEVTCVVVDVSHEDPEVKFNWYVDGVEVHNAKTKPREEQYNSTYRVVSVLTVLHQDWLNGKEYKCKVSNKALPRPIEKTISKAKGQPREPQVYTLPPSRDELTKNQVSLTCLVKGFYPSDIAVEWESNGQPENNYKTTPPVLDSDGSFFLYSKLTVDKSRWQQGNVFSCSVMHEALHNHYTQESLSLSP light: DIQMTQSPSSLSASVGDRVTITCRASQDISSYLNWYQQKPGKAPKLLIYYTSRLHSGVPSRFSGSGSGTDFTFTISSLQPEDIATYYCQQGNTLPYTFGQGTKVEIK |  |  |  |  |  | 3.7 | 0.84 | 29 | 0.022 | 19 | 65
4 | IL6R-BP911/IL6R-L (antibody, human IgG1, Alteration introduced into IL6R-B3; also called P238D/A330K) heavy: QVQLQESGPGLVKPSETLSLTCAVSGHSISHDHAWSWVRQPPGEGLEWIGFISYSGITNYNPSLQGRVTISRDNSKNTLYLQMNSLRAEDTAVYYCARSLARTTAMDYWGEGTLVTVSSASTKGPSVFPLAPSSKSTSGGTAALGCLVKDYFPEPVTVSWNSGALTSGVHTFPAVLQSSGLYSLSSVVTVPSSSLGTQTYICNVNHKPSNTKVDKKVEPKSCDKTHTCPPCPAPELLGGDSVFLFPPKPKDTLMISRTPEVTCVVVDVSHEDPEVKFNWYVDGVEVHNAKTKPREEQYNSTYRVVSVLTVLHQDWLNGKEYKCKVSNKALPKPIEKTISKAKGQPREPQVYTLPPSRDELTKNQVSLTCLVKGFYPSDIAVEWESNGQPENNYKTTPPVLDSDGSFFLYSKLTVDKSRWQQGNVFSCSVMHEALHNHYTQESLSLSP light: DIQMTQSPSSLSASVGDRVTITCRASQDISSYLNWYQQKPGKAPKLLIYYTSRLHSGVPSRFSGSGSGTDFTFTISSLQPEDIATYYCQQGNTLPYTFGQGTKVEIK |  | 52 | 108 | 101 | 119 |  |  |  |  |  | 
5 | IL6R-BP078/IL6R-L (antibody, human IgG1, Alteration introduced into IL6R-B3; also called P238D/A330M) heavy: QVQLQESGPGLVKPSETLSLTCAVSGHSISHDHAWSWVRQPPGEGLEWIGFISYSGITNYNPSLQGRVTISRDNSKNTLYLQMNSLRAEDTAVYYCARSLARTTAMDYWGEGTLVTVSSASTKGPSVFPLAPSSKSTSGGTAALGCLVKDYFPEPVTVSWNSGALTSGVHTFPAVLQSSGLYSLSSVVTVPSSSLGTQTYICNVNHKPSNTKVDKKVEPKSCDKTHTCPPCPAPELLGGDSVFLFPPKPKDTLMISRTPEVTCVVVDVSHEDPEVKFNWYVDGVEVHNAKTKPREEQYNSTYRVVSVLTVLHQDWLNGKEYKCKVSNKALPMPIEKTISKAKGQPREPQVYTLPPSRDELTKNQVSLTCLVKGFYPSDIAVEWESNGQPENNYKTTPPVLDSDGSFFLYSKLTVDKSRWQQGNVFSCSVMHEALHNHYTQESLSLSP light: DIQMTQSPSSLSASVGDRVTITCRASQDISSYLNWYQQKPGKAPKLLIYYTSRLHSGVPSRFSGSGSGTDFTFTISSLQPEDIATYYCQQGNTLPYTFGQGTKVEIK | 91 |  | 89 | 101 |  |  |  |  |  |  | 
6 | IL6R-BP142/IL6R-L (antibody, human IgG1, Alteration introduced into IL6R-B3; also called P238D/K326N) heavy: QVQLQESGPGLVKPSETLSLTCAVSGHSISHDHAWSWVRQPPGEGLEWIGFISYSGITNYNPSLQGRVTISRDNSKNTLYLQMNSLRAEDTAVYYCARSLARTTAMDYWGEGTLVTVSSASTKGPSVFPLAPSSKSTSGGTAALGCLVKDYFPEPVTVSWNSGALTSGVHTFPAVLQSSGLYSLSSVVTVPSSSLGTQTYICNVNHKPSNTKVDKKVEPKSCDKTHTCPPCPAPELLGGDSVFLFPPKPKDTLMISRTPEVTCVVVDVSHEDPEVKFNWYVDGVEVHNAKTKPREEQYNSTYRVVSVLTVLHQDWLNGKEYKCKVSNNALPAPIEKTISKAKGQPREPQVYTLPPSRDELTKNQVSLTCLVKGFYPSDIAVEWESNGQPENNYKTTPPVLDSDGSFFLYSKLTVDKSRWQQGNVFSCSVMHEALHNHYTQESLSLSP light: DIQMTQSPSSLSASVGDRVTITCRASQDISSYLNWYQQKPGKAPKLLIYYTSRLHSGVPSRFSGSGSGTDFTFTISSLQPEDIATYYCQQGNTLPYTFGQGTKVEIK |  | 98 | 97 | 103 | 106 |  |  |  |  |  | 
7 | IL6R-BP198/IL6R-L (antibody, human IgG1, Anti-IL-6R human IgG1 variant; copies: 2 + 2) heavy: QVQLQESGPGLVKPSETLSLTCAVSGHSISHDHAWSWVRQPPGEGLEWIGFISYSGITNYNPSLQGRVTISRDNSKNTLYLQMNSLRAEDTAVYYCARSLARTTAMDYWGEGTLVTVSSASTKGPSVFPLAPSSKSTSGGTAALGCLVKDYFPEPVTVSWNSGALTSGVHTFPAVLQSSGLYSLSSVVTVPSSSLGTQTYICNVNHKPSNTKVDKKVEPKSCDKTHTCPPCPAPDYLGGDSVFLFPPKPKDTLMISRTPEVTCVVVDVSDEDGEVKFNWYVDGVEVHNAKTKPREEQYNSTYRVVSVLTVLHQDWLNGKEYKCKVSNAALPKPIEKTISKAKGQPREPQVYTLPPSRDELTKNQVSLTCLVKGFYPSDIAVEWESNGQPENNYKTTPPVLDSDGSFFLYSKLTVDKSRWQQGNVFSCSVMHEALHNHYTQESLSLSP light: DIQMTQSPSSLSASVGDRVTITCRASQDISSYLNWYQQKPGKAPKLLIYYTSRLHSGVPSRFSGSGSGTDFTFTISSLQPEDIATYYCQQGNTLPYTFGQGTKVEIK |  |  |  |  |  | 15.7 | 0.2 | 20 | 0.011 |  | 44
